Results taken from patent publication US20250136699A1 (JIANGSU BIOJETAY BIOTECHNOLOGY, published 2025).
Where two headings read alike, the source gives them in different places. Blank lines part the entries; values can stand above or below the binder they belong to.

How the values were obtained:
[1] = target: T1, human FcRn (human FCGRT and B2M) on stably transfected MDCK cells (human, UniProt P55899 24-365; P61769 21-119); assay: cell-based or functional assay
[2] = target: T2, Human recombinant FCGRT & B2M Heterodimer Protein (hFcRn) (human, UniProt P55899 24-297; P61769 21-119); assay: ELISA on coated hFcRn, IgG4 antibody titrated
T2 construct: Bought protein; also called human FcRn
Protocol: (§1) hFcRn binding of purified full-length chimeric antibodies: The hFcRn antigen binding ELISA was performed on the purified full-length chimeric antibodies (reformatted as IgG4). Briefly, plates were coated overnight at 4° C. with 1 μg/mL of hFcRn (cat #CT009-H08H) in PBS. After removing the coating solution, the wells were blocked by adding blocking buffer and incubated at room temperature for 1 hour. Plates were then washed 6 times with wash buffer. Serial dilutions of purified antibodies in PBS were added to individual wells followed by incubation at room temperature for 1 hour. Plates were washed 6 times with wash buffer. […] Plates were incubated at 37° C. for 1 hour, washed 6 times with wash buffer, and developed for 5-10 minutes with 50 L/well of TMB substrate, then quenched with 2M H₂SO₄. […] The ELISA results (OD450) were analyzed, and the binding curves were generated by Graphpad PRISM.

[3] = target: T3, Cynomolgus monkey FcRn-alpha (cynomolgus monkey, UniProt Q8SPV9 24-297, limits assumed); assay: ELISA on coated cynoFcRn, IgG4 antibody titrated
T3 construct: The printed entry looks like the full-length precursor (signal peptide, transmembrane and cytoplasmic parts); also called cynoFcRn; not shown: His tag and Avi tag

[4] = target: T4, human FCGRT (human, UniProt P55899 24-297, biotinylated (Avi tag) in the blocking assays); assay: ELISA on coated human FCGRT, IgG4 antibody titrated
T4 construct: Alpha chain alone, expressed in Expi293 cells with His and Avi tags; also called FCGRT of human FcRn protein; biotinylated human FCGRT; not shown: His tag and Avi tag

[5] = target: T5, human B2M (human, UniProt P61769 21-119, limits assumed); assay: ELISA: human B2M coated, antibody titrated, OD450
T5 construct: also called beta-2-microglobulin; not shown: His tag and Avi tag

[6] = target: T2, Human recombinant FCGRT & B2M …; assay: SPR, Biacore T200, antibody (IgG4) on CM5 chip, hFcRn in solution, pH 6.0
Protocol: The anti-FcRn antibodies were stabilized on sensor chip CM5. The affinities for hFcRn of antibodies at various concentrations were measured. […] Using the SPR technology, the association and dissociation rates were measured, and binding affinity was determined.

[7] = target: T4, human FCGRT; assay: competition ELISA: human IgG coated, biotinylated human FCGRT plus antibody, SA-HRP
Protocol: (§2) After removing the coating solution, the wells were blocked with a blocking buffer containing 1% BSA at room temperature for 1 hour. Plates were then washed with wash buffer. […] After incubation, 100 μL of SA-HRP (1:20,000) was added to each well and incubated for 1 hour at 37° C. The wells were washed before adding 100 μL/well of TMB and incubated for 5-10 minutes at 37° C. 2M H₂SO₄ was used to stop the reaction. […] The ELISA results (OD450) were analyzed, and the binding curves were generated by PRISM.

[8] = target: human FcRn (human FCGRT and B2M) on stably transfected MDCK cells (human) (UniProt P55899); assay: cell-based or functional assay
[9] = target: human FcRn (human FCGRT and B2M) on stably transfected MDCK cells (human) (UniProt P55899); assay: cell-based or functional assay; remark: listed apart in the source
[10] = target: Human recombinant FCGRT & B2M Heterodimer Protein (hFcRn) (human) (UniProt P55899); assay: ELISA, hFcRn coated at 1 ug/mL, antibody titrated, anti-human IgG Fab-HRP
[11] = target: T4, human FCGRT; assay: competition ELISA: human IgG coated, biotinylated human FCGRT plus antibody, SA-HRP; remark: listed apart in the source
[12] = target: T4, human FCGRT; assay: as above; remark: listed apart in the source
[13] = target: T4, human FCGRT; assay: ELISA: human FCGRT coated, antibody titrated, goat anti-human IgG Fab-HRP, OD450
[14] = target: T4, human FCGRT; assay: as above; remark: listed apart in the source
[15] = target: T3, Cynomolgus monkey FcRn-alpha; assay: ELISA: cynoFcRn coated, antibody titrated, goat anti-human IgG Fab-HRP, OD450
[16] = target: T1, human FcRn (human FCGRT and B2M) on …; assay: cell-based or functional assay; remark: listed apart in the source
[17] = target: T5, human B2M; assay: ELISA: human B2M coated, antibody titrated, OD450; remark: listed apart in the source
Protocol: (§3) Measurement of the binding specificity of anti-FcRn antibodies to FCGRT and B2M by EILSA: Briefly, human FCGRT or B2M was coated on a 96-well plate at 4° C. overnight, after removing the coating solution, a blocking buffer containing 1% BSA was added into the plates followed by incubation at room temperature for 1 hour to block unspecific binding. Plates were then washed with wash buffer, and serial dilutions of anti-FcRn antibodies were added to the wells and incubated at room temperature for 1 hour. […] The wells were washed before adding 100 μL/well of TMB and incubated for 5-10 minutes at 37° C. 2M H₂SO₄ was used to stop the reaction. […] The ELISA results (OD450) were analyzed, and the binding curves were generated by Graphpad PRISM.

[18] = target: T6, Rattus norvegicus FcRn-alpha (rat, UniProt P13599 23-298); assay: ELISA: rFcRn coated, antibody titrated, goat anti-human IgG Fab-HRP, OD450
T6 construct: Alpha chain alone; also called rFcRn; rat FcRn; not shown: His tag and Avi tag
T6 sequence: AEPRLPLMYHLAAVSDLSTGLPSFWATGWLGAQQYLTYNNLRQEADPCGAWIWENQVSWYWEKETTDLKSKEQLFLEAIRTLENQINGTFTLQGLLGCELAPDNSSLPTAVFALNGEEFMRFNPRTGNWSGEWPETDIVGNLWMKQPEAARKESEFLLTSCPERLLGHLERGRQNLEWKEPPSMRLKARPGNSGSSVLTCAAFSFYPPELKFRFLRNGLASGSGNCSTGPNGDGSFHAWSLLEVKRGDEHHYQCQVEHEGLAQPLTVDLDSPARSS

[19] = target: T4, human FCGRT; assay: ELISA: human FCGRT coated, antibody titrated, goat anti-human IgG Fab-HRP, OD450; remark: listed apart in the source
Protocol: as §3

[20] = target: T2, Human recombinant FCGRT & B2M …; assay: ELISA: hFcRn coated (1 ug/mL), antibody (IgG4) titrated, goat anti-human IgG Fab-HRP, OD450
Protocol: as §1

[21] = target: T4, human FCGRT; assay: blocking ELISA: human IgG coated, biotinylated human FCGRT plus titrated antibody, SA-HRP, OD450; blocked ligand: human IgG
Protocol: as §2

T3 sequence (Q8SPV9 24-297 limits assumed): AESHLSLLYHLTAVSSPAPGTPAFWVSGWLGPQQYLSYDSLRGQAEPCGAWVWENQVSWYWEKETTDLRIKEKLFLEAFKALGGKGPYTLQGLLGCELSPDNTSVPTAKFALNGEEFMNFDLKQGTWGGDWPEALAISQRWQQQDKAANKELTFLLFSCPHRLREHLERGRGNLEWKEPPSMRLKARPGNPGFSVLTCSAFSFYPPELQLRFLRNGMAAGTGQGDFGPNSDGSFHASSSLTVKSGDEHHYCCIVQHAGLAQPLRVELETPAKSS
T4 sequence (P55899 24-297 limits assumed): as the sequence (Q8SPV9 24-297 limits assumed) above, with D39N, Q44E, S99G, G189S, N190S, M217L, T269S counted along it

IgG Recycle IC50 [1]: 11.9 nM | EC50 [2]: 3.11 nM | EC50 [3]: 2.82 nM | EC50 [4]: 1.22 nM | Kd [6]: 0.493 nM | koff [6]: 0.00184 s⁻¹ | kon [6]: 3.73e+06 M⁻¹ s⁻¹ | IC50 [7]: 5.12 nM
B1: ZLP1-3-2M (antibody, V domains shown)
VH: QVQLQESGPGLVKPSETLSLTCTVTGYSFTSGYSWHWIRQPPGKGLEWIGYIHDSGGTNYNPSLKSRVTISRDTSKNQFSLKLSSVTAADTAVYYCAREENYRYFDVWGQGTLVTVSS
VL: EIVLTQSPATLSLSPGERATLSCSASSSVSYMHWFQQKPGQSPRLLIYSTSNLASGIPARFSGSGSGTDFTLTISSLEPEDFAVYYCQQRSSYPPTFGQGTKVEIK
binding result [5]: no binding (tested: about 700 nM (Log[Ab] about 2.8))

IgG Recycle IC50 [8]: 7.8 nM | IgG Recycle IC50 [9]: 11.8 nM | EC50 [10]: 1.04 nM | IC50 [11]: 10.9 nM | IC50 [12]: 11.6 nM | EC50 (read off the curve) [13]: 10 nM | EC50 (read off the curve) [14]: 0.1 nM | EC50 (read off the curve) [15]: 0.2 nM
B2: Rozanolixizumab (antibody, part only; not given: Constant regions, V domains shown, not shown: another chain or arm of the molecule)
VH: EVPLVESGGGLVQPGGSLRLSCAVSGFTFSNYGMVWVRQAPGKGLEWVAYIDSDGDNTYYRDSVKGRFTISRDNAKSSLYLQMNSLRAEDTAVYYCTTGIVRPFLYWGQGTLVTVSS
VL: DIQMTQSPSSLSASVGDRVTITCKSSQSLVGASGKTYLYWLFQKPGKAPKRLIYLVSTLDSGIPSRFSGSGSGTEFTLTISSLQPEDFATYYCLQGTHFPHTFGQGTKLEIK

IgG Recycle IC50 [16]: 3.12 nM | EC50 (read off the curve) [15]: ~6 nM | EC50 (read off the curve) [19]: ~20 nM | EC50 (read off the curve) [20]: ~9 nM | IC50 (read off the curve) [21]: ~40 nM
B3: ZLP37 (antibody, V domains shown)
VH: EVQLQQSGVELARPGASVKMSCKASGYTFSSYAMQWVKKRPGQGLEWIGYINPGTGYTNYNQKFKDKATLTADKSSSTAYMHLSSLTSEDSAVYFCARGGGLRGAMDYWGQGTSVTVSS
VL: DIVLTQSPALMSASPGEKVTMTCSANSSVNYMYWYQQKPGSSPKLWIYSTSNLASGVPARFSGSGSGTSYSLTISSMEAEDAATYYCHQRSSYPWTFGGGTKLEIK
notes: Full-length chimeric antibody with human IgG1 or IgG4 heavy constant and human kappa or lambda light constant domain
binding result [17]: no binding (tested: about 700 nM (Log[Ab] about 2.8)) | binding result [18]: no binding (tested: about 700 nM (Log[Ab] about 2.8))
